The record followed here is US20260242735A1 (UNIVERSIT T BASEL, published 2026).

The target of one test is human CD33 S128A (human, UniProt P20138 18-364). The test is described as follows: flow cytometry on HEK293-T, alanine scan. For orientation: In flow cytometry, cells or beads pass a laser one at a time.
In the next test the target is human CD33 D95A (human, UniProt P20138 18-364). In words: flow cytometry on HEK293-T, alanine scan.
Another test concerns the target human CD33 L148A (human, UniProt P20138 18-364). The test is described as follows: flow cytometry on HEK293-T, alanine scan.
The next test concerns the target human CD33 K146A (human, UniProt P20138 18-364). In words: flow cytometry on HEK293-T, alanine scan.
The next test has as its target human CD33 I105A (human, UniProt P20138 18-364). In words: flow cytometry on HEK293-T, alanine scan.
The target in the next test is human CD33 T125A (human, UniProt P20138 18-364). In words: flow cytometry on HEK293-T, alanine scan.
Chain of human CD33 T125A (P20138 18-364 T125A limits assumed): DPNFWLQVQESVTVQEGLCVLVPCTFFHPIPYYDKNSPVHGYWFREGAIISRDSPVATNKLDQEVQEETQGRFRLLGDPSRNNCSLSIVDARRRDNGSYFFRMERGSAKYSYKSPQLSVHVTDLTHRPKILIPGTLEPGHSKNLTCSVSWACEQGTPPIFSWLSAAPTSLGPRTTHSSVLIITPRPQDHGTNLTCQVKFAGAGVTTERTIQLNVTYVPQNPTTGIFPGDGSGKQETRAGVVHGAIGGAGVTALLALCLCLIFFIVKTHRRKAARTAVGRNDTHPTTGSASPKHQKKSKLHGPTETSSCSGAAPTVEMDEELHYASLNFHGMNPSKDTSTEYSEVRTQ
The next test concerns the target human CD33 G94A (human, UniProt P20138 18-364). In words: flow cytometry on HEK293-T, alanine scan.
In a further test the target is human CD33 G156A (human, UniProt P20138 18-364). In words: flow cytometry on HEK293-T, alanine scan.
Chain of human CD33 G156A (P20138 18-364 G156A limits assumed): as the sequence (P20138 18-364 T125A limits assumed) above, with A108T, G139A counted along it
The next test addresses human CD33 L103A (human, UniProt P20138 18-364). In words: flow cytometry on HEK293-T, alanine scan.
Another test has as its target human CD33 F117A (human, UniProt P20138 18-364). The test is described as follows: flow cytometry on HEK293-T, alanine scan.
The target in the next test is human CD33 M120A (human, UniProt P20138 18-364). The test is described as follows: flow cytometry on HEK293-T, alanine scan.
Chain of human CD33 M120A (P20138 18-364 M120A limits assumed): as the sequence (P20138 18-364 T125A limits assumed) above, with M103A, A108T counted along it
Another test deals with human CD33 S97A (human, UniProt P20138 18-364). The test is described as follows: flow cytometry on HEK293-T, alanine scan.
Chain of human CD33 S97A (P20138 18-364 S97A limits assumed): as the sequence (P20138 18-364 T125A limits assumed) above, with S80A, A108T counted along it
The next test deals with human CD33 L134A (human, UniProt P20138 18-364). In words: flow cytometry on HEK293-T, alanine scan.
Chain of human CD33 L134A (P20138 18-364 L134A limits assumed): as the sequence (P20138 18-364 T125A limits assumed) above, with A108T, L117A counted along it
Another test concerns the target human CD33 L161A (human, UniProt P20138 18-364). The test is described as follows: flow cytometry on HEK293-T, alanine scan.
Another test addresses human CD33 N113A (human, UniProt P20138 18-364). In words: flow cytometry on HEK293-T, alanine scan.
A further test concerns the target human CD33 L93A (human, UniProt P20138 18-364). The test is described as follows: flow cytometry on HEK293-T, alanine scan.
The next test concerns the target human CD33 C101A (human, UniProt P20138 18-364). The test is described as follows: flow cytometry on HEK293-T, alanine scan.
The next test concerns the target human CD33 D51A (human, UniProt P20138 18-364). In words: alanine scan, flow cytometry, HEK293-T.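 Note: antibody binding to each alanine-substituted CD33 mutant expressed transiently in HEK293-T, read as fluorescence minus background, mean of duplicates, relative to wild-type CD33 set as 100%.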
The next test addresses human CD33 V73A (human, UniProt P20138 18-364). In words: alanine scan, flow cytometry, HEK293-T.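 Note: antibody binding to each alanine-substituted CD33 mutant expressed transiently in HEK293-T, read as fluorescence minus background, mean of duplicates, relative to wild-type CD33 set as 100%.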
For another test, the target named is human CD33 D107A (human, UniProt P20138 18-364). The test is described as follows: alanine scan, flow cytometry, HEK293-T.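 Note: antibody binding to each alanine-substituted CD33 mutant expressed transiently in HEK293-T, read as fluorescence minus background, mean of duplicates, relative to wild-type CD33 set as 100%.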
Chain of human CD33 D107A (P20138 18-364 D107A limits assumed): as the sequence (P20138 18-364 T125A limits assumed) above, with D90A, A108T counted along it
Another test addresses human CD33 F90A (human, UniProt P20138 18-364). The test is described as follows: alanine scan, flow cytometry, HEK293-T.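 Note: antibody binding to each alanine-substituted CD33 mutant expressed transiently in HEK293-T, read as fluorescence minus background, mean of duplicates, relative to wild-type CD33 set as 100%.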
The target in another test is human CD33 N100A (human, UniProt P20138 18-364). The test is described as follows: alanine scan, flow cytometry, HEK293-T.
Chain of human CD33 N100A (P20138 18-364 N100A limits assumed): as the sequence (P20138 18-364 T125A limits assumed) above, with N83A, A108T counted along it
The next test has as its target human CD33 R109A (human, UniProt P20138 18-364). The test is described as follows: alanine scan, flow cytometry, HEK293-T.
Another test addresses human CD33 R98A (human, UniProt P20138 18-364). In words: alanine scan, flow cytometry, HEK293-T.
The target in the next test is human CD33 R119A (human, UniProt P20138 18-364). In words: alanine scan, flow cytometry, HEK293-T.
Chain of human CD33 R119A (P20138 18-364 R119A limits assumed): as the sequence (P20138 18-364 T125A limits assumed) above, with R102A, A108T counted along it
A further test deals with human CD33 E84A (human, UniProt P20138 18-364). The test is described as follows: alanine scan, flow cytometry, HEK293-T.
Chain of human CD33 E84A (P20138 18-364 E84A limits assumed): as the sequence (P20138 18-364 T125A limits assumed) above, with E67A, A108T counted along it
The next test deals with human CD33 I66A (human, UniProt P20138 18-364). In words: alanine scan, flow cytometry, HEK293-T.
Chain of human CD33 I66A (P20138 18-364 I66A limits assumed): as the sequence (P20138 18-364 T125A limits assumed) above, with I49A, A108T counted along it

Chain of human CD33 L161A (P20138 18-364 L161A limits assumed): as the sequence (P20138 18-364 T125A limits assumed) above, with A108T, L144A counted along it
Chain of human CD33 L103A (P20138 18-364 L103A limits assumed): as the sequence (P20138 18-364 T125A limits assumed) above, with L86A, A108T counted along it
Chain of human CD33 S128A (P20138 18-364 S128A limits assumed): as the sequence (P20138 18-364 T125A limits assumed) above, with A108T, S111A counted along it
Chain of human CD33 L148A (P20138 18-364 L148A limits assumed): as the sequence (P20138 18-364 T125A limits assumed) above, with A108T, L131A counted along it
Chain of human CD33 F117A (P20138 18-364 F117A limits assumed): as the sequence (P20138 18-364 T125A limits assumed) above, with F100A, A108T counted along it
Chain of human CD33 D95A (P20138 18-364 D95A limits assumed): as the sequence (P20138 18-364 T125A limits assumed) above, with D78A, A108T counted along it
Chain of human CD33 I105A (P20138 18-364 I105A limits assumed): as the sequence (P20138 18-364 T125A limits assumed) above, with I88A, A108T counted along it
Chain of human CD33 G94A (P20138 18-364 G94A limits assumed): as the sequence (P20138 18-364 T125A limits assumed) above, with G77A, A108T counted along it
Chain of human CD33 L93A (P20138 18-364 L93A limits assumed): as the sequence (P20138 18-364 T125A limits assumed) above, with L76A, A108T counted along it
Chain of human CD33 N113A (P20138 18-364 N113A limits assumed): as the sequence (P20138 18-364 T125A limits assumed) above, with N96A, A108T counted along it
Chain of human CD33 C101A (P20138 18-364 C101A limits assumed): as the sequence (P20138 18-364 T125A limits assumed) above, with C84A, A108T counted along it
Chain of human CD33 K146A (P20138 18-364 K146A limits assumed): as the sequence (P20138 18-364 T125A limits assumed) above, with A108T, K129A counted along it
Chain of human CD33 D51A (P20138 18-364 D51A limits assumed): as the sequence (P20138 18-364 T125A limits assumed) above, with D34A, A108T counted along it
Chain of human CD33 R109A (P20138 18-364 R109A limits assumed): as the sequence (P20138 18-364 T125A limits assumed) above, with R92A, A108T counted along it
Chain of human CD33 F90A (P20138 18-364 F90A limits assumed): as the sequence (P20138 18-364 T125A limits assumed) above, with F73A, A108T counted along it
Chain of human CD33 R98A (P20138 18-364 R98A limits assumed): as the sequence (P20138 18-364 T125A limits assumed) above, with R81A, A108T counted along it
Chain of human CD33 V73A (P20138 18-364 V73A limits assumed): as the sequence (P20138 18-364 T125A limits assumed) above, with V56A, A108T counted along it

B1: Refmab #1 (antibody, V domains shown)
VH: EVQLVQSGAEVKKPGSSVKVSCKASGYTITDSNIHWVRQAPGQSLEWIGYIYPYNGGTDYNQKFKNRATLTVDNPTNTAYMELSSLRSEDTAFYYCVNGNPWLAYWGQGTLVTVSS
VL: DIQLTQSPSTLSASVGDRVTITCRASESLDNYGIRFLTWFQQKPGKAPKLLMYAASNQGSGVPSRFSGSGSGTEFTLTISSLQPDDFATYYCQQTKEVPWSFGQGTKVEVK
notes: The alanine scan used IgG or Fab; also called hP67.6
As for B1, the “Mean % WT Binding” value with human CD33 S128A turned out to be 118 % WT binding; in the test with human CD33 D95A it was 80.5 % WT binding; with human CD33 L148A it was 83.1 % WT binding; with human CD33 K146A, 78.5 % WT binding; with human CD33 I105A it was 31.5 % WT binding; with human CD33 T125A, 92.4 % WT binding. The “Mean % WT Binding” value with human CD33 G94A turned out to be 88.3 % WT binding; with human CD33 G156A, 83.4 % WT binding; in the test with human CD33 L103A, 96.3 % WT binding; with human CD33 F117A, 98.7 % WT binding; with human CD33 M120A, 79.8 % WT binding; with human CD33 S97A it was 92.5 % WT binding. In addition, the “Mean % WT Binding” value in the test with human CD33 L134A was 95.4 % WT binding; with human CD33 L161A it was 87 % WT binding; in the test with human CD33 N113A it was 96 % WT binding; with human CD33 L93A, 88.6 % WT binding; with human CD33 C101A it was 1.1 % WT binding.

B2: Refmab #3 (antibody, V domains shown)
VH: QVQLVQSGAEVKKPGSSVKVSCKASGYTFTDYNMHWVRQAPGQGLEWIGYIYPYNGGTGYNQKFKSKATITADESTNTAYMELSSLRSEDTAVYYCARGRPAMDYWGQGTLVTVSS
VL: DIQMTQSPSSLSASVGDRVTITCRASESVDNYGISFMNWFQQKPGKAPKLLIYAASNQGSGVPSRFSGSGSGTDFTLTISSLQPDDFATYYCQQSKEVPWTFGQGTKVEIK
notes: The alanine scan used IgG or Fab
In the case of B2, the “Mean % WT Binding” value with human CD33 S128A was 446 % WT binding; in the test with human CD33 D95A, 103 % WT binding; with human CD33 L148A, 108 % WT binding; with human CD33 K146A, 118 % WT binding; in the test with human CD33 I105A, 64.7 % WT binding; in the test with human CD33 T125A, 932 % WT binding. Also, the “Mean % WT Binding” value was found to be 115 % WT binding in the test with human CD33 G94A; 116 % WT binding with human CD33 G156A; 113 % WT binding in the test with human CD33 L103A; 166 % WT binding with human CD33 F117A; 90.4 % WT binding in the test with human CD33 S97A; 81.4 % WT binding with human CD33 L134A. For the same molecule, the “Mean % WT Binding” value in the test with human CD33 L161A was found to be 116 % WT binding; with human CD33 N113A, 81.4 % WT binding; in the test with human CD33 L93A, 120 % WT binding.

B3: Refmab #6 (antibody, V domains shown)
VH: QVQLQQPGAEVVKPGASVKMSCKASGYTFTSYYIHWIKQTPGQGLEWVGVIYPGNDDISYNQKFQGKATLTADKSSTTAYMQLSSLTSEDSAVYYCAREVRLRYFDVWGQGTTVTVSS
VL: EIVLTQSPGSLAVSPGERVTMSCKSSQSVFFSSSQKNYLAWYQQIPGQSPRLLIYWASTRESGVPDRFTGSGSGTDFTLTISSVQPEDLAIYYCHQYLSSRTFGQGTKLEIK
notes: Full-length format is human IgG1 Fc silent (PG-LALA); also made as Fab; The alanine scan used IgG or Fab
As to B3, the “Mean % WT Binding” value was determined as 61.7 % WT binding in the test with human CD33 D51A; 77.7 % WT binding with human CD33 V73A; 96.5 % WT binding with human CD33 D107A; 71.1 % WT binding with human CD33 F90A; 83.9 % WT binding with human CD33 N100A; 107 % WT binding in the test with human CD33 R109A. The “Mean % WT Binding” value with human CD33 R98A was 94.2 % WT binding; with human CD33 R119A, 123 % WT binding; in the test with human CD33 E84A, 97.4 % WT binding; in the test with human CD33 I66A, 93.7 % WT binding.

B4: Refmab #4 (antibody, V domains shown)
VH: QVQLVQSGAEVKKPGESVKVSCKASGYTFTNYGMNWVKQAPGQGLEWMGWINTYTGEPTYADKFQGRVTMTTDTSTSTAYMEIRNLGGDDTAVYYCARWSWSDGYYVYFDYWGQGTSVTVSS
VL: DIVMTQSPDSLTVSLGERTTINCKSSQSVLDSSTNKNSLAWYQQKPGQPPKLLLSWASTRESGIPDRFSGSGSGTDFTLTIDSPQPEDSATYYCQQSAHFPITFGQGTRLEIK
notes: as for B2
As to B4, the “Mean % WT Binding” value stood at 184 % WT binding with human CD33 S128A; 90.9 % WT binding in the test with human CD33 D95A; 113 % WT binding with human CD33 L148A; 122 % WT binding with human CD33 K146A; 21.6 % WT binding with human CD33 I105A; 218 % WT binding in the test with human CD33 T125A. In addition, the “Mean % WT Binding” value with human CD33 G94A came out at 59 % WT binding; in the test with human CD33 G156A it was 67.2 % WT binding; in the test with human CD33 L103A, 85.9 % WT binding; with human CD33 F117A it was 142 % WT binding; with human CD33 M120A, 96.8 % WT binding; with human CD33 S97A, 121 % WT binding. The “Mean % WT Binding” value in the test with human CD33 L134A amounted to 82.2 % WT binding; with human CD33 L161A, 114 % WT binding; in the test with human CD33 N113A it was 45.1 % WT binding; in the test with human CD33 L93A, 63.9 % WT binding; with human CD33 C101A, 1.5 % WT binding.

B5: Refmab #2 (antibody, V domains shown)
VH: QVQLVQSGAEVKKPGSSVKVSCKASGGTFSDYAISWVRQAPGQGLEWMGRIIPILGVADYAQKFQGRVTITADKSTRTAYMELSSLRSEDTAVYYCARNWADAFDIWGQGTMVTVSS
VL: DIQLTQSPSSLSASVGDRVTITCRASQGISSVLAWYQQKPGKAPKLLIYDASSLESGVPSRFSGSGSGTDFTLTISSLQPEDFATYYCQQFDSSITFGQGTKLEIK
notes: as for B2
In the case of B5, the “Mean % WT Binding” value amounted to 140 % WT binding with human CD33 S128A; 110 % WT binding with human CD33 D95A; 119 % WT binding in the test with human CD33 L148A; 115 % WT binding with human CD33 K146A; 43.7 % WT binding in the test with human CD33 I105A; 107 % WT binding with human CD33 T125A. Further, the “Mean % WT Binding” value with human CD33 G94A worked out at 108 % WT binding; with human CD33 G156A it was 99.4 % WT binding; with human CD33 L103A it was 110 % WT binding; with human CD33 F117A, 111 % WT binding; in the test with human CD33 M120A, 70.7 % WT binding; with human CD33 S97A, 132 % WT binding. Also, the “Mean % WT Binding” value with human CD33 L134A worked out at 99.6 % WT binding; with human CD33 L161A, 114 % WT binding; in the test with human CD33 N113A it was 91 % WT binding; in the test with human CD33 L93A, 103 % WT binding; with human CD33 C101A, 0.6 % WT binding.

B6: Refmab #5 (antibody, V domains shown)
VH: QVQLVQSGAEVKKPGASVKVSCKASGYTFTNYDINWVRQAPGQGLEWIGWIYPGDGSTKYNEKFKAKATLTADTSTSTAYMELRSLRSDDTAVYYCASGYEDAMDYWGQGTTVTVSS
VL: DIQMTQSPSSLSASVGDRVTINCKASQDINSYLSWFQQKPGKAPKTLIYRANRLVDGVPSRFSGSGSGQDYTLTISSLQPEDFATYYCLQYDEFPLTFGGGTKVEIK
notes: as for B3
For B6, the “Mean % WT Binding” value was 105 % WT binding with human CD33 D51A; 112 % WT binding with human CD33 V73A; 119 % WT binding in the test with human CD33 D107A; 123 % WT binding with human CD33 F90A; 165 % WT binding with human CD33 N100A; 103 % WT binding with human CD33 R109A. The “Mean % WT Binding” value stood at 134 % WT binding with human CD33 R98A, 167 % WT binding in the test with human CD33 R119A, 141 % WT binding with human CD33 E84A and 105 % WT binding with human CD33 I66A.
